Measured values reported in paper doi:10.1101/2023.04.21.537819, “DNA damage-induced interaction between a lineage addiction oncogenic transcription factor and the MRN complex shapes a tissue-specific DNA Damage Response and cancer predisposition” (bioRxiv, 2023).

Molecular target: T1, mCherry-LacR-MITF (human, UniProt O75030-9 1-419)
T1 construct: MITF, human; In the self-association test the second copy was MITF-GFP (pEGFP-C1-MITF, Ngeow et al. 2018) in place of mCherry-LacR; also called LacR-mCherry-MITF; MITF WT; source: U2OS-LacO#13 cells, transfected, in cells; not shown: mCherry-LacR, N-terminal, kept
T1 sequence (looked up): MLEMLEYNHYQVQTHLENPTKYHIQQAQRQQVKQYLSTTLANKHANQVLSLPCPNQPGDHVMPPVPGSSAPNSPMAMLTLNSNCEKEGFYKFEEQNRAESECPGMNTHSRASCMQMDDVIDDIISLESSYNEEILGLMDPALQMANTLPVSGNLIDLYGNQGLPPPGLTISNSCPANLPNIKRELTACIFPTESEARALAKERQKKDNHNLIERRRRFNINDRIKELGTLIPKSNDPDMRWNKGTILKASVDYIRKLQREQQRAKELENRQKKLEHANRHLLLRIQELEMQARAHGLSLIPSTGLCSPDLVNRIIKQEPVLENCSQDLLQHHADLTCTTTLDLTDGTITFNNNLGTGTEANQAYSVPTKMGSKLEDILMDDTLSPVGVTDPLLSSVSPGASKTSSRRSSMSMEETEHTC
Assay: LacR/LacO nuclear tethering assay; U2OS-LacO#13 cells transfected 24 h with an mCherry-LacR bait (tethered at the LacO array) and a GFP-tagged prey; fixed, confocal microscopy; ratio of GFP fluorescence inside the mCherry dot to the rest of the nucleus
Conditions: partners not purified

B1: NBS1-GFP (natural protein, UniProt O60934 1-754, looked up)
chain: MWKLLPAAGPAGGEPYRLLTGVEYVVGRKNCAILIENDQSISRNHAVLTANFSVTNLSQTDEIPVLTLKDNSKYGTFVNEEKMQNGFSRTLKSGDGITFGVFGSKFRIEYEPLVACSSCLDVSGKTALNQAILQLGGFTVNNWTEECTHLVMVSVKVTIKTICALICGRPIVKPEYFTEFLKAVESKKQPPQIESFYPPLDEPSIGSKNVDLSGRQERKQIFKGKTFIFLNAKQHKKLSSAVVFGGGEARLITEENEEEHNFFLAPGTCVVDTGITNSQTLIPDCQKKWIQSIMDMLQRQGLRPIPEAEIGLAVIFMTTKNYCDPQGHPSTGLKTTTPGPSLSQGVSVDEKLMPSAPVNTTTYVADTESEQADTWDLSERPKEIKVSKMEQKFRMLSQDAPTVKESCKTSSNNNSMVSNTLAKMRIPNYQLSPTKLPSINKSKDRASQQQQTNSIRNYFQPSTKKRERDEENQEMSSCKSARIETSCSLLEQTQPATPSLWKNKEQHLSENEPVDTNSDNNLFTDTDLKSIVKNSASKSHAAEKLRSNKKREMDDVAIEDEVLEQLFKDTKPELEIDVKVQKQEEDVNVRKRPRMDIETNDTFSDEAVPESSKISQENEIGKKRELKEDSLWSAKEISNNDKLQDDSEMLPKKLLLTEFRSLVIKNSTSRNPSGINDDYGQLKNFKKFKKVTYPGAGKLPHIIGGSDLIAHHARKNTELEEWLRQEMEVQNQHAKEESLADDLFRYNPYLKRRR
notes: NBS1 (nibrin), component of the MRN complex; plasmid pcDNA3.1(+)-C-eGFP-NBS1 from GenScript; also called GFP-NBS1; pcDNA3.1(+)-C-eGFP-NBS1; source: U2OS-LacO#13 cells, transfected, in cells; not shown: eGFP, C-terminal, kept
median enrichment of GFP at the mCherry dot over the rest of the nucleus: 7 fold
